Data as given in patent US20220025056A1.

Columns and labels:
[1] = biological target: human ILT2 (LILRB1) expressed at the surface of transfected cells (human) (UniProt Q8NHL6); test: flow cytometry, CHO-ILT2 cells
[2] = biological target: ILT-2_6xHis recombinant protein (human) (UniProt Q8NHL6); test: Octet BLI, antibody on anti-mouse Fc sensor, soluble ILT2 analyte
Chain of ILT-2_6xHis recombinant protein (human) (Q8NHL6 other isoform, or with tags, fused parts or gaps limits assumed): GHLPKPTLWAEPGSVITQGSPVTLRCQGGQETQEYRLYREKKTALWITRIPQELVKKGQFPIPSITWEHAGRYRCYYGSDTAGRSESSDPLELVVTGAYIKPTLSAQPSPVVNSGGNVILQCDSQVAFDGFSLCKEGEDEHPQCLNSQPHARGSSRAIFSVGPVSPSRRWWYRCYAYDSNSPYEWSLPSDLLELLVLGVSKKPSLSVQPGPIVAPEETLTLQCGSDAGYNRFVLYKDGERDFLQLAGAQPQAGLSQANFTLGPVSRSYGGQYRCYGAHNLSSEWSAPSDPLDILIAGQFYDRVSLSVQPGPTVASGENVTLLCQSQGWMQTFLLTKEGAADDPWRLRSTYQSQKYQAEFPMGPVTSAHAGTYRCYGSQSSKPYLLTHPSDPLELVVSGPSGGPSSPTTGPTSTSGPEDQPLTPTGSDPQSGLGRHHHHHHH

Chain of human ILT2 (LILRB1) expressed at the surface of transfected cells (human) (Q8NHL6 24-650): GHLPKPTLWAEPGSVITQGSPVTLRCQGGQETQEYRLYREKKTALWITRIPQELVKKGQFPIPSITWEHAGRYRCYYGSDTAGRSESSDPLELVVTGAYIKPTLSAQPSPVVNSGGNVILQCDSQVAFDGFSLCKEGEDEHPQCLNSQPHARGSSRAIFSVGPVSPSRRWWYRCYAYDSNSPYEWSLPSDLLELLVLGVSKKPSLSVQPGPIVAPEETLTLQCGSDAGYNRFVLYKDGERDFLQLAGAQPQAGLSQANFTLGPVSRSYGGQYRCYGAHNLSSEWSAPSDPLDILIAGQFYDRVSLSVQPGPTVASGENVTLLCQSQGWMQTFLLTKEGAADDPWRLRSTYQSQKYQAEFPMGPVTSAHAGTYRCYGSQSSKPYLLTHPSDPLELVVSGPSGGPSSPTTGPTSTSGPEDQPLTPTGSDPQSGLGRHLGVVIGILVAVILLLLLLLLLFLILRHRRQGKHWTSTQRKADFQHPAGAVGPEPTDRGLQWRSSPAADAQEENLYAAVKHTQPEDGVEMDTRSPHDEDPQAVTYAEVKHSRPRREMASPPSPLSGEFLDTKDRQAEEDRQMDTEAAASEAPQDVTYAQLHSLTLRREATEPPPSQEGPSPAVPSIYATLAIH

GHI/75 (antibody) was tested, and the EC50 [1] was 5.39 µg/mL, the Kd [2] was 0.0281 µM and the koff [2] was 0.00038 s⁻¹. It also gave a kon [2] of 13000 M⁻¹ s⁻¹.
